Key:
[1] = biological target: Diphosphonucleotide phosphatase/phosphodiesterase (PPD1) from yellow lupin (Lupinus luteus) seeds (yellow lupin (Lupinus luteus)); experiment: SAXS; PPD1 in solution, 1-4 mg/ml, SWING beamline at SOLEIL; crystallographic hexamer and trimer models fitted with CRYSOL, ab initio shape reconstruction with GASBOR
[2] = biological target: Diphosphonucleotide phosphatase/phosphodiesterase (PPD1) from yellow lupin (Lupinus luteus) seeds (yellow lupin (Lupinus luteus)); experiment: crystal structure; hanging drop at room temperature, 5 mg/ml PPD1 in 20 mM sodium acetate, 0.5 M NaCl pH 5.2 with Morpheus solution 39 (pH 6.5); asymmetric unit a homotrimer, hexamer generated from crystallographic symmetry; 1.65 Å
[3] = biological target: PPD1 (diphosphonucleotide phosphatase/phosphodiesterase) (Lupinus luteus, UniProt Q8VX11); conditions: active site, bidentate, bridging Fe and Mn; crystals from acetate pH 5.2 and Morpheus solution pH 6.5
Chain of PPD1 (diphosphonucleotide phosphatase/phosphodiesterase) (Q8VX11 27-615): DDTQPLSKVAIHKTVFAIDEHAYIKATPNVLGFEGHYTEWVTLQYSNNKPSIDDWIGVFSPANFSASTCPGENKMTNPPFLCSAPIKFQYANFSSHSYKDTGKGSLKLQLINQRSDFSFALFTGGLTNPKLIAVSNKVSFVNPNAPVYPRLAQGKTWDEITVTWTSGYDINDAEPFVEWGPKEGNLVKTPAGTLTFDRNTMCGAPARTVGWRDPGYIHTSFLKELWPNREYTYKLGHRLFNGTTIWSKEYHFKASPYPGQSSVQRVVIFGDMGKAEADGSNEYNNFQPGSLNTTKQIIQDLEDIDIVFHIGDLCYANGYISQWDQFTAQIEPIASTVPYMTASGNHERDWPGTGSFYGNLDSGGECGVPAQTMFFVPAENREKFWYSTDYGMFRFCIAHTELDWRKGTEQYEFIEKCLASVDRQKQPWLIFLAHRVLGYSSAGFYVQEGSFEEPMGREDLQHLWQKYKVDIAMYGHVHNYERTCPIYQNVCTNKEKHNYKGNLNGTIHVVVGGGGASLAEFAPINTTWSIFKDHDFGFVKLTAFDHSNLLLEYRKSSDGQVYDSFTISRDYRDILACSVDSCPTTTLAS

Compound	stoichiometry N [1]	stoichiometry N [2]	X-ray crystal structure, 1.65 A [3]
Diphosphonucleotide phosphatase/phosphodiesterase (PPD1) from yellow lupin (Lupinus luteus) seeds (enzyme)	6	6	–
O=P(O)(O)O [phosphate]	–	–	active site of PPD1 with a phosphate ion bound to both of the metal atoms
